# From paper PMC9177846, “Targeting parvalbumin promotes M2 macrophage polarization and energy expenditure in mice” (Nature Communications, 2022)
# T1: GFP-tagged CSF1R immunoprecipitated from HEK293T cells (UniProt P09581)
# T1 sequence: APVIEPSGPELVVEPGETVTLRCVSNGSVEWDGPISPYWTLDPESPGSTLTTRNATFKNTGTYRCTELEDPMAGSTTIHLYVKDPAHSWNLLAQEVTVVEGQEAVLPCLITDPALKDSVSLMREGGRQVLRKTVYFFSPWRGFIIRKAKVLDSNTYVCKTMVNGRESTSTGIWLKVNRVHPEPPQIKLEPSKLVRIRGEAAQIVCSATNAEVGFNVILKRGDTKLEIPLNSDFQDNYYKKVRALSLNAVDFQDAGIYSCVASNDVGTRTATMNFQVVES
# T2: CSF1R protein immobilised for SPR (UniProt P09581 20-298)
# T2 construct: CSF1R protein used at 30 µg/ml for covalent immobilisation
# T2 sequence: T1 sequence
# T3: GFP-tagged CSF1R immunoprecipitated from HEK293T cells (UniProt P09581 20-298)
# T3 sequence: T1 sequence
# B1: Macrophage colony-stimulating factor (ligand)
# chain: KEVSEHCSHMIGNGHLKVLQQLIDSQMETSCQIAFEFVDQEQLDDPVCYLKKAFFLVQDIIDETMRFKDNTPNANATERLQELSNNLNSCFTKDYEEQNKACVRTFHETPLQLLEKIKNFFNETKNLLEKDWNIFTKNCNNSFAKCSSRDVVTKPDCNCLYPKATPSSDPASASPHQPPAPSMAPLAGLAWDDSQRTEGSSLLPSELPLRIEDPGSAKQRPPRSTCQTLESTEQPNHGDRLTEDSQPHPSAGGPVPGVEDILESSLGTNWVLEEASGEASEGFLTQEAKFSPSTPVGGSIQAETDRPRALSASPFPKSTEDQKPVDITDRPLTEVNPMRPIGQTQNNTPEKTDGTSTLREDHQEPGSPHIATPNPQRVSNSATPVAQLLLPKSHSWGIVLPLGELEGKRSTRDRRSPAELEGGSASEGAARPVARFNSIPLTDTGHVEQHEGSSDPQIPESVFHLLVPGIILVLLTVGGLLFYKWKWRSHRDPQTLDSSVGRPEDSSLTQDEDRQVELPV
# B2: parvalbumin (recombinant protein) (natural protein, UniProt P32848 1-110, looked up)
# chain: MSMTDVLSAEDIKKAIGAFAAADSFDHKKFFQMVGLKKKNPDEVKKVFHILDKDKSGFIEEDELGSILKGFSSDARDLSAKETKTLLAAGDKDGDGKIGVEEFSTLVAES
# notes: parvalbumin, recombinant; The only source printed for a recombinant parvalbumin is human parvalbumin 15333-H08E (Sino Biological), named for the PBMC experiments only; also called PVALB; rPVLAB; source: recombinant protein
# Columns and labels:
# [1] = target: T1, GFP-tagged CSF1R immunoprecipitated from HEK293T cells
# [2] = target: T2, CSF1R protein immobilised for SPR; assay: SPR; Open SPR (Nicoya); CSF1R (30 µg/ml) covalently immobilised on COOH sensor chip by EDC/NHS; parvalbumin injected from low to high concentrations, 20 µl/min for 5 min; analysed with Trace Drawer; details: both partners purified
# [3] = target: T3, GFP-tagged CSF1R immunoprecipitated …; assay: cell-based or functional assay
Binder,ELK1-Luc reporter: concentration-response of MCSF on CSF1R activation in cells stably expressing CSF1R (EC50) [1] [nM],Kd [2] [nM],ELK1-Luc reporter: concentration-response of parvalbumin on CSF1R activation in the presence of MCSF (IC50) [3] [nM]
B1,0.36,–,–
B2,–,3650,3.26
